The data set can be described thus: soluble on expression in E. coli; label from the status in PepcDB or PDB records.
Consider “MENTVDAKKDSTIAFTGGRILTMDSEQKYAEAVVIRGDRIAAVGGTYILKSFPDAEIRDLKNRYLLPAFIDSHNHLSSFGCFFPTWANLIGLTEKEAILKAIRRQVRKEPGTGWIVGFGWFDARMGGADLTKKDLDEVSSDRPVLLIQTTFHQSVVNTRALGLLGINQSTPDPRCGIIFRESDGTPTGVLVEYAQAPVFKLVMEADTETLADLIEARAKELLQFGITAIHDPGATPAAEAAYRQLHAEGRLPVSVLMMPHGETLLDNRLRDRLQGQVTGTGDERLRVGPIKLFADGATAETVAFSLKIGGQTINSGCYRDDFEEMLFAATEKGFRVCVHSFGNATTDAVLTAFENAALRAPAGFEMRPRLEHVTLINALQIRRLASMGGCACIQPQFLSRAQNTKQVMLEDGKWYAYGDLVKGGVIVASSSDDPGGFMDARDPIKGSVMGSTMSDGEGNVIFPDQVLPFEQWLWMYTAGGAYAGGQEKERGILKKGMVADLVILEGSLDSKNPTVVAETWAAGKQVYTKELEHHHHHH”, for which the “soluble on expression in E. coli” value is “not soluble”.
Regarding “MEQATQQIAISDAAQAHFRKLLDTQEEGTHIRIFVVNPGTPNAECGVSYCPPNAVEESDIEMKYNTFSAFIDEVSLPFLEEAEIDYVTEELGAQLTLKAPNAKMRKVADDAPLIERVEYVIQTQINPQLANHGGRITLIEITEDGYAVLQFGGGCNGCSMVDVTLKDGVEKQLVSLFPNELKGAKDITEHQRGEHSYYLEHHHHHH”, the “soluble on expression in E. coli” value is “soluble”.
With “MEQDTQHVKPLQTKTDIHAVLASNGRIIYISANSKLHLGYLQGEMIGSFLKTFLHEEDQFLVESYFYNEHHLMPCTFRFIKKDHTIVWVEAAVEIVTTRAERTEREIILKMKVLEEETGHQSLNCEKHEIEPASPESTTYITDDYERLVENLPSPLCISVKGKIVYVNSAMLSMLGAKSKDAIIGKSSYEFIEEEYHDIVKNRIIRMQKGMEVGMIEQTWKRLDGTPVHLEVKASPTVYKNQQAELLLLIDISSRKKFQTILQKSRERYQLLIQNSIDTIAVIHNGKWVFMNESGISLFEAATYEDLIGKNIYDQLHPCDHEDVKERIQNIAEQKTESEIVKQSWFTFQNRVIYTEMVCIPTTFFGEAAVQVILRDISERKQTEELMLKSEKLSIAGQLAAGIAHEIRNPLTAIKGFLQLMKPTMEGNEHYFDIVFSELSRIELILSELLMLAKPQQNAVKEYLNLKKLIGEVSALLETQANLNGIFIRTSYEKDSIYINGDQNQLKQVFINLIKNAVESMPDGGTVDIIITEDEHSVHVTVKDEGEGIPEKVLNRIGEPFLTTKEKGTGLGLMVTFNIIENHQGVIHVDSHPEKGTAFKISFPKK”, the “soluble on expression in E. coli” value is “not soluble”.
Consider “MEQFLDNIKDLEVTTVVRAQEALDKKETATFFIGRKTCPYCRKFAGTLSGVVAETKAHIYFINSEEPSQLNDLQAFRSRYGIPTVPGFVHITDGQINVRCDSSMSAQEIKDFAGL”, for which the “soluble on expression in E. coli” value was “soluble”.
As to “MEQINEKNFNFYNRIGLDTFQALAKDGGFSTFVDLEIAYRYIQPTENIAEIGAGYGRCIDFLLAKKHQGKIIAVEQSPKLCEHLRAVYSSTIKIVEGDIYKVSFDHQIDAALWMWSGMIDFSVEEQAAVIKHIHELLTQKGKLFIDIPRIGIKTIADHIDQQRIKLTTDFGEIECYIPLSSEVKEYADAAGFTRVDEINYETATDKKRTMYILMK”, the “soluble on expression in E. coli” value is “not soluble”.
Consider “MEQPTRPGFATRRRTQLFDALVDLILVEGFAHLTLDEIANRLRCSKSTLYTLAGSKEQLVRAATVHFFRRATDDVESHIEPIAGARERITAYLSAVGTALSAASDQFMADLDAFPPAREVYERNTQFAAGRVQELITEGVAGGDFRDVHAAFAADLAATMMVRIQQRGVRDSTGLDDAHAYAELAAILTGGISA”, for which the “soluble on expression in E. coli” value is listed as “not soluble”.
As for “MEQTTIDGISLSLAGPVELTLRWVGQDELLKQLLAAWMVIDEKDIPFNPRLIGKPGVGKTTLAYAAARRLDRPVYLFQATMDTRPEDLIITPVIGPDGKIQYAASALVSAMLKGGVLILDEGNRMSEKAWASLAPLLDDRRYVESIITGLRVPAHRDFRIVVTMNEDSSTFEVPEYIHSRLQPQIFIDFPEADEELLILKENLPFAPSRILAYVVDFLQRAHAADELYSVRDGINIARYALKMMAATERDSVELLPLAVERVLGDEALRYLKLEHHHHHH”, the entry is “not soluble”; as for “MERINFIFGIHNHQPLGNFGWVFEEAYNRSYRPFMEILEEFPEMKVNVHFSGPLLEWIEENKPDYLDLLRSLIKRGQLEIVVAGFYEPVLAAIPKEDRLVQIEMLKDYARKLGYDAKGVWLTERVWQPELVKSLREAGIEYVVVDDYHFMSAGLSKEELFWPYYTEDGGEVITVFPIDEKLRYLIPFRPVKKTIEYLESLTSDDPSKVAVFHDDGEKFGVWPGTYEWVYEKGWLREFFDAITSNEKINLMTYSEYLSKFTPRGLVYLPIASYFEMSEWSLPAKQAKLFVEFVEQLKEEGKFEKYRVFVRGGIWKNFFFKYPESNFMHKRMLMVSKAVRDNPEARKYILKAQCNDAYWHGVFGGIYLPHLRRTVWENIIKAQRYLKPENKILDVDFDGRAEIMVENDGFIATIKPHYGGSIFELSSKRKAVNYNDVLPRRWEHYHEVPEATKPEKESEEGIASIHELGKQIPEEIRRELAYDWQLRAILQDHFIKPEETLDNYRLVKYHELGDFVNQPYEYEMIENGVKLWREGGVYAEEKIPARVEKKIELTEDGFIAKYRVLLEKPYKALFGVEINLAVHSVMEKPEEFEAKEFEVNDPYGIGKVRIELDKAAKVWKFPIKTLSQSEAGWDFIQQGVSYTMLFPIEKELEFTVRFREL”, “soluble”.
In the case of “MERKMATHFARGILTEGHLISVRLPSQCHQEARNIPPHRQSRFLASRGLLAELMFMLYGIGELPEIVTLPKGKPVFSDKNLPSFSISYAGNMVGVALTTEGECGLDMELQRATRGFHSPHAPDNHTFSSNESLWISKQNDPNEARAQLITLRRSVLKLTGDVLNDDPRDLQLLPIAGRLKCAHVNHVEALCDAEDVLVWSVAVTPTIEKLSVWELDGKHGWKSLPDIHSRANNPTSRMMRFAQLSTVKAFSPN”, the “soluble on expression in E. coli” value is “not soluble”.
In the case of “MESADGEIEALCSIWDGVHVESKLEASRRYLKHKIKSLEDESTSASVLIEMTVSEGYPAVSPTVTLSNPRGIGEPEFRELQRQIQEIIEQNSDEMPIICQIFQHCSDFLTENQHQNMDCSICLICLASSPIIVTACDHFMHFACFNRYLTECLTGLRQEIQDAQKHMKEQVETNIFCPVCRAQLTDSNTIHNYRENVQLMIKNCKKNQKTLKNKKRRSSTTTEDVQKTIKRWHEEQRKLSKIYEKQKEKGGIIDIEEEKKRRQFFIETTTNEETDEAESTDIAENID”, the “soluble on expression in E. coli” value is listed as “not soluble”.
Regarding “MESEGEAQMFADCDQKTVKQTAAKPMSSKKKQDFQALASDRQLAIVFSSMIQVSEAFDYGIGNPEYFVRISMTEEEADIAKENLESIKLENKSLKKQNSEAVALLQKTRNQDMSRIEIQQLTENRAGFFETADSMIKLINQVTPKNAKKTRQQLDQLKKQYTQYSAESIKIMNSIVKKQKADKASFERHLEALLQKQPGQQVRSELYLEHHHHHH”, the “soluble on expression in E. coli” value is on record as “soluble”.
Take “MESIGLVEVNSIARGIEAADAMLKAAQVDLLEAKPVCPGKYIVLICGDVAAVQSSVTAGKTMAAHSVLDDFILPNVHPQVLTAISAATPLTLIKALGIIETFSIASLIVAADTAAKTGQVDLVEIRIGMGIGGKSFVTLTGDVASVESSVAAGVMLASERGMLVDKVVIPSPHDHLKRCLC”: the “soluble on expression in E. coli” value is listed as “soluble”.
Take “MESINYQILKRSEKKLLGLFFDYFQHVIKMHETLNKLLCEADVTKREKLIQAIYEMEDFSNKSEFKLINESIWAISKNSPLTNHLRLTITIIMCSRDLERICDYANNLTKFVKHYQHLDVSIFSKLVNLHKSVLNNLKQTFASLQDKEKPLTIQFENVTKILTEFEQQYRVVLTEYYDKVKDEKLSDRIFLIDLILSVKHIERINDYCYNIIKAFLFVKNPEVFN”: the “soluble on expression in E. coli” value is “soluble”.
On to “METLTVHAPSPSTNLPSYGNGAFSLSAPHVPGAGPLLVQVVYSFFQSPNMCLQALTQLEDYIKKHGASNPLTLQIISTNIGYFCNADRNLVLHPGISVYDAYHFAKPAPSQYDYRSMNMKQMSGNVTTPIVALAHYLWGNGAERSVNIANIGLKISPMKINQIKDIIKSGVVGTFPVSTKFTHATGDYNVITGAYLGNITLKTEGTLTISANGSWTYNGVVRSYDDKYDFNASTHRGIIGESLTRLGAMFSGKEYQILLPGEIHIKESGKRAAHHHHHH”, for which the “soluble on expression in E. coli” value is reported as “soluble”.

Values taken from the DeepSol protein solubility set.
